Where a chain is given by its changes, count along the chain named.

This note sets out measurements from US20180171001A1.

Holding throughout (assay): cell-based or functional assay
For test [1], the target named is Env of HIV-1 strain R1166.c1 (HIV-1).
In another test the target is Env of MuLV.
Test [2] deals with Env of HIV-1 strain 250-4 (HIV-1).
For test [3], the target named is Env of HIV-1 strain ZM53M.PB12 (HIV-1).
The target of test [4] is Env of HIV-1 strain YU2.DG (HIV-1).
Test [5] concerns the target Env of HIV-1 strain 251-18 (HIV-1).
Test [6] has as its target Env of HIV-1 strain REJO4541.67 (HIV-1).
Test [7] has as its target Env of HIV-1 strain X1254_c3 (HIV-1).
For test [8], the target named is Env of HIV-1 strain 3016.v5.c45 (HIV-1).
For test [9], the target named is Env of HIV-1 strain Du172.17 (HIV-1).
Test [10] addresses Env of HIV-1 strain 231965.c1 (HIV-1).
The target of test [11] is Env of HIV-1 strain PVO.4 (HIV-1).
Test [12] concerns the target Env of HIV-1 strain 3365.v2.c20 (HIV-1).
The target of test [13] is Env of HIV-1 strain H086.8 (HIV-1).
The target in test [14] is Env of HIV-1 strain ZM109F.PB4 (HIV-1).
Test [15] has as its target Env of HIV-1 strain 3415.v1.c1 (HIV-1).

B1: γ59κ3 (antibody, V domains shown)
VH: QIHLVQSGTEVKKPGSSVTVSCKAYGVNTFGLYAVNWVRQAPGQGLEYIGQIWRWKSSASHHFRGRVLISAVDLTGSSPPISSLEIKNVTSDDTAVYFCTTTSTYDEWSDLHHDGVMAFSSWGQGTLISVSA
VL: DIQMTQSPSTLSASIGDTVRISCRASQSITGNWLAWYHQRPGKAPRLLIYRGSRLLGGVPSRFSGSAAGTDFTLTIANLQAEDFGTFYCQQYDTYPGTFGQGTKVEVKR
For the molecule B1, the neutralization IC50 in [1] was 24.2 µg/mL; with Env of MuLV, above 30 µg/mL; in test [2] it was above 15 µg/mL; in [3] it was above 15 µg/mL; in [4] it was 8.97 µg/mL; in test [5] it was above 15 µg/mL. Besides, the neutralization IC50 in test [6] is 8.54 µg/mL; in test [7], 3.39 µg/mL; in test [8], above 15 µg/mL; in test [9], above 15 µg/mL; in test [10], above 15 µg/mL; in [11], above 15 µg/mL. The neutralization IC50 in test [12], in test [13], in test [14] and in test [15] was above 15 µg/mL in each case.

B2: γ22κ5 (antibody, V domains shown)
VH: B1 VH with G45S, S77P, V89L, E107K, D110G
VL: B1 VL with I15T, L34V, H38Q, S53A, R54A, S64R, A77G
Regarding B2, the neutralization IC50 in test [1] was 2.4 µg/mL; with Env of MuLV it was above 30 µg/mL; in test [2] it was above 15 µg/mL; in test [3] it was above 15 µg/mL; in test [4], 0.569 µg/mL; in test [5] it was 1.7 µg/mL. For the same molecule, the neutralization IC50 in test [6] was 0.795 µg/mL; in test [7] it was 1.52 µg/mL; in test [8] it was 0.103 µg/mL; in [9] it was above 15 µg/mL; in test [10], 0.69 µg/mL; in test [11] it was 0.352 µg/mL. The neutralization IC50 in test [12], in test [13], in [14] and in test [15] was above 15 µg/mL throughout.

B3: 8ANC3430 (antibody, V domains shown)
VH: B1 VH with G45S, L68I, V89L, Y105S, E107Y, D110G
VL: B1 VL with I15V, N32G
Turning to B3, the neutralization IC50 was 3.64 µg/mL in test [1]; above 23 µg/mL in the test with Env of MuLV; above 23 µg/mL in test [2]; above 23 µg/mL in test [3]; 0.545 µg/mL in test [4]; 6.17 µg/mL in [5]. In addition, the neutralization IC50 is 0.198 µg/mL in [6]; 4.28 µg/mL in [7]; 0.271 µg/mL in [8]; above 23 µg/mL in test [9]; 1.19 µg/mL in test [10]; 0.206 µg/mL in [11]. Further, the neutralization IC50 in test [12], in test [13], in [14] and in [15] was above 23 µg/mL throughout.

B4: γ3κ3 (antibody, V domains shown)
VH: QIHLVQSGTEVKKPGSSVTVSCKAYGVNTFGLYAVSWVRQAPGQRLEYIGQIRRWKSSASHHFRGRVTVSAVDPTGSSPPISSLEIRDLTTDDTAVYFCTTTSTSDYWSGLHNERGTAFSSWGQGTLISVSA
VL: B1 VL
B4: the neutralization IC50 in test [1] was 2.2 µg/mL; in the test with Env of MuLV it was above 30 µg/mL; in [2], above 15 µg/mL; in test [3], above 15 µg/mL; in [4], 0.42 µg/mL; in test [5], above 15 µg/mL. Further, the neutralization IC50 is 0.26 µg/mL in test [6]; 1.82 µg/mL in test [7]; 0.347 µg/mL in [8]; above 15 µg/mL in [9]; 0.727 µg/mL in [10]; 0.17 µg/mL in [11]. Moreover, the neutralization IC50 is above 15 µg/mL in [12], 3.31 µg/mL in test [13], above 15 µg/mL in [14] and above 15 µg/mL in test [15].

B5: 8ANC3484 (antibody, V domains shown)
VH: B1 VH with G45S, V89L, E107R, D110G
VL: B1 VL with L34V, H38Q, S53A, R54A, S64R, A77G
Take B5: the neutralization IC50 in test [1] is 1.03 µg/mL; with Env of MuLV, above 30 µg/mL; in [2] it was above 30 µg/mL; in test [3], 11.6 µg/mL; in test [4], 0.461 µg/mL; in test [5], 0.391 µg/mL. Besides, the neutralization IC50 in test [6] worked out at 0.117 µg/mL; in test [7], 2.19 µg/mL; in test [8], 0.131 µg/mL; in test [9] it was 4.01 µg/mL; in test [10], 0.294 µg/mL; in test [11], 0.077 µg/mL. Moreover, the neutralization IC50 in test [12] was above 30 µg/mL; in [13], 0.394 µg/mL; in [14], above 30 µg/mL; in test [15] it was 0.589 µg/mL.

B6: 8ANC3630 (antibody, V domains shown)
VH: B1 VH with G45S, V89L, E107R, D110G
VL: B1 VL with N32G
B6: the neutralization IC50 in test [1] is 1.45 µg/mL; with Env of MuLV, above 30 µg/mL; in test [2], above 30 µg/mL; in test [3], above 30 µg/mL; in test [4], 0.468 µg/mL; in test [5] it was 0.73 µg/mL. For the same molecule, the neutralization IC50 in test [6] is 2.65 µg/mL; in test [7], 2.38 µg/mL; in test [8], 0.136 µg/mL; in test [9], above 30 µg/mL; in [10], 0.375 µg/mL; in test [11], 0.102 µg/mL. Also, the neutralization IC50 is above 30 µg/mL in test [12], 0.3 µg/mL in test [13], above 30 µg/mL in test [14] and 28 µg/mL in [15].

B7: 8ANC3044 (antibody, V domains shown)
VH: B1 VH with K12R, G45S, V89L, E107K, D110G
VL: B1 VL with L34V, H38Q, S53A, R54A, A77G, A81T
Take B7: the neutralization IC50 in [1] is 2.38 µg/mL; in the test with Env of MuLV it was above 30 µg/mL; in [2], above 30 µg/mL; in test [3], 15.2 µg/mL; in [4], 0.747 µg/mL; in test [5], 0.858 µg/mL. The neutralization IC50 in test [6] was 0.278 µg/mL; in [7] it was 4.54 µg/mL; in [8] it was 0.242 µg/mL; in [9], above 30 µg/mL; in [10] it was 1.33 µg/mL; in [11], 0.26 µg/mL. For the same molecule, the neutralization IC50 in test [12] was above 30 µg/mL; in test [13], 3.83 µg/mL; in [14], above 30 µg/mL; in test [15], 7.56 µg/mL.

B8: γ3κ5 (antibody, V domains shown)
VH: B4 VH
VL: B1 VL with I15T, L34V, H38Q, S53A, R54A, S64R, A77G
On to B8, for which the neutralization IC50 in [1] is 2.07 µg/mL; in the test with Env of MuLV it was above 15 µg/mL; in test [2], above 15 µg/mL; in test [3], above 15 µg/mL; in test [4], 0.2 µg/mL; in [5], 0.721 µg/mL. Moreover, the neutralization IC50 is 0.097 µg/mL in test [6]; 1.72 µg/mL in test [7]; 0.314 µg/mL in test [8]; 3.73 µg/mL in test [9]; 0.697 µg/mL in test [10]; 0.081 µg/mL in test [11]. Besides, the neutralization IC50 in test [12] was above 15 µg/mL; in test [13], 0.434 µg/mL; in [14], above 15 µg/mL; in test [15], above 15 µg/mL.

B9: γ23κ5 (antibody, V domains shown)
VH: B1 VH with G45S, L68I, V89L, Y105S, E107Y, D110G
VL: B1 VL with I15T, L34V, H38Q, S53A, R54A, S64R, A77G
On to B9, for which the neutralization IC50 in test [1] was 1.07 µg/mL; in the test with Env of MuLV, above 30 µg/mL; in test [2], above 15 µg/mL; in test [3], 5.88 µg/mL; in [4] it was 0.136 µg/mL; in [5] it was 0.176 µg/mL. For the same molecule, the neutralization IC50 was 0.091 µg/mL in [6]; 0.919 µg/mL in [7]; 0.091 µg/mL in [8]; 1.81 µg/mL in test [9]; 0.291 µg/mL in test [10]; 0.043 µg/mL in test [11]. Besides, the neutralization IC50 in test [12] is above 15 µg/mL; in test [13], 0.474 µg/mL; in test [14] it was above 15 µg/mL; in test [15], 1.48 µg/mL.
